B1: CHCHD6 (parent)
chain: MYKLSSEQFHEAASKMESTIKPRR
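Note: lentivirally expressed fusions sorted by FACS into six bins by GFP to DsRed ratio, PSI derived from sequencing read proportions per bin multiplied by bin number.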

Variants of B1 are the subject of this series. Nature of the series: protein stability index of a GFP-peptide fusion (GPS, HEK-293T) (PSI 1-6); higher = more stable. Particulars: c terminus: a fixed tail appended.
Regarding MYKLSSEQFAEAASKMESTIKPRR [H10A], the protein stability index is 3.66. Then MYKLSSEQFCEAASKMESTIKPRR [H10C], with 3.93; and MYKLSSRQFHEAASKMESTIKPRR [E7R], with 2.96; and MYKLSSMQFHEAASKMESTIKPRR [E7M], with 2.97. For the variant MYKLSSDQFHEAASKMESTIKPRR [E7D], the protein stability index amounted to 3.7. For MYKLSSAQFHEAASKMESTIKPRR [E7A], the protein stability index was determined as 3.6. Then MYKLSSSQFHEAASKMESTIKPRR [E7S], with 3.79; and MYKLSSHQFHEAASKMESTIKPRR [E7H], with 3.44; and MYKLSSWQFHEAASKMESTIKPRR [E7W], with 2.56. Then MYKLSSVQFHEAASKMESTIKPRR [E7V], with 3.44. As for MYKLSSIQFHEAASKMESTIKPRR [E7I], the protein stability index turned out to be 3.1. Then MYKLSSYQFHEAASKMESTIKPRR [E7Y], with 2.82; and MYKLSSTQFHEAASKMESTIKPRR [E7T], with 3.2.

With MYKLSSFQFHEAASKMESTIKPRR [E7F], the protein stability index worked out at 3.1.

Regarding MYKLSSKQFHEAASKMESTIKPRR [E7K], the protein stability index was found to be 3.71.

For MYKLSSCQFHEAASKMESTIKPRR [E7C], the protein stability index is 3.29. Then MYKLSSPQFHEAASKMESTIKPRR [E7P], with 3.64. MYKLSSGQFHEAASKMESTIKPRR [E7G]: the protein stability index amounted to 4.39.

MYKLSSLQFHEAASKMESTIKPRR [E7L]: the protein stability index is 3.71. Then MYKLSSNQFHEAASKMESTIKPRR [E7N], with 3.58; and MYKLSSQQFHEAASKMESTIKPRR [E7Q], with 3.58. Then MYKLSEEQFHEAASKMESTIKPRR [S6E], with 3.53; and MYKLSQEQFHEAASKMESTIKPRR [S6Q], with 4.25; and MYKLSIEQFHEAASKMESTIKPRR [S6I], with 2.64.

For MYKLSREQFHEAASKMESTIKPRR [S6R], the protein stability index is 3.39. Then MYKLSNEQFHEAASKMESTIKPRR [S6N], with 4.23. Then MYKLSTEQFHEAASKMESTIKPRR [S6T], with 4.18; and MYKLSWEQFHEAASKMESTIKPRR [S6W], with 2.62.

As for MYKLSPEQFHEAASKMESTIKPRR [S6P], the protein stability index came to 3.78. Then MYKLSFEQFHEAASKMESTIKPRR [S6F], with 3.46; and MYKLSLEQFHEAASKMESTIKPRR [S6L], with 3.03; and MYKLSVEQFHEAASKMESTIKPRR [S6V], with 3.1.

Turning to MYKLSKEQFHEAASKMESTIKPRR [S6K], the protein stability index came to 3.93. Take MYKLSYEQFHEAASKMESTIKPRR [S6Y]: the protein stability index stood at 3.39. Then MYKLSCEQFHEAASKMESTIKPRR [S6C], with 3.52. Then MYKLSAEQFHEAASKMESTIKPRR [S6A], with 3.64; and MYKLSHEQFHEAASKMESTIKPRR [S6H], with 3.53; and MYKLSGEQFHEAASKMESTIKPRR [S6G], with 4.26.

As to MYKLSMEQFHEAASKMESTIKPRR [S6M], the protein stability index is 3.74. MYKLSDEQFHEAASKMESTIKPRR [S6D]: the protein stability index stood at 4.03. Then MYKLSSECFHEAASKMESTIKPRR [Q8C], with 2.96. Then MYKLSSERFHEAASKMESTIKPRR [Q8R], with 3.86; and MYKLSSETFHEAASKMESTIKPRR [Q8T], with 4.16. Then MYKLSSEDFHEAASKMESTIKPRR [Q8D], with 3.73; and MYKLSSEFFHEAASKMESTIKPRR [Q8F], with 2.65. On to MYKLSSEMFHEAASKMESTIKPRR [Q8M], for which the protein stability index turned out to be 3.39.

For MYKLSSELFHEAASKMESTIKPRR [Q8L], the protein stability index stood at 3.22. Consider MYKLSSEPFHEAASKMESTIKPRR [Q8P], for which the protein stability index stood at 4.39. Then MYKLSSEYFHEAASKMESTIKPRR [Q8Y], with 2.94; and MYKLSSEAFHEAASKMESTIKPRR [Q8A], with 4.25; and MYKLSSEVFHEAASKMESTIKPRR [Q8V], with 3.49. Then MYKLSSEWFHEAASKMESTIKPRR [Q8W], with 2.5; and MYKLSSEGFHEAASKMESTIKPRR [Q8G], with 3.35. Then MYKLSSEHFHEAASKMESTIKPRR [Q8H], with 3.22; and MYKLSSENFHEAASKMESTIKPRR [Q8N], with 3.86. Consider MYKLSSEKFHEAASKMESTIKPRR [Q8K], for which the protein stability index was 3.84. Then MYKLSSEEFHEAASKMESTIKPRR [Q8E], with 3.75; and MYKLSSESFHEAASKMESTIKPRR [Q8S], with 3.74. MYKLSSEIFHEAASKMESTIKPRR [Q8I]: the protein stability index was 2.84. Then MYKLSSEQRHEAASKMESTIKPRR [F9R], with 4.25. Then MYKLSSEQWHEAASKMESTIKPRR [F9W], with 3.23; and MYKLSSEQVHEAASKMESTIKPRR [F9V], with 3.36; and MYKLSSEQYHEAASKMESTIKPRR [F9Y], with 3.98. Then MYKLSSEQGHEAASKMESTIKPRR [F9G], with 4.21; and MYKLSSEQSHEAASKMESTIKPRR [F9S], with 4.81.

MYKLSSEQNHEAASKMESTIKPRR [F9N]: the protein stability index was 4.64. Turning to MYKLSSEQCHEAASKMESTIKPRR [F9C], the protein stability index came out at 3.83. Then MYKLSSEQPHEAASKMESTIKPRR [F9P], with 4.68; and MYKLSSEQLHEAASKMESTIKPRR [F9L], with 3.36; and MYKLSSEQAHEAASKMESTIKPRR [F9A], with 4.03. Take MYKLSSEQMHEAASKMESTIKPRR [F9M]: the protein stability index came out at 4.28. For MYKLSSEQQHEAASKMESTIKPRR [F9Q], the protein stability index is 4.12. Then MYKLSSEQEHEAASKMESTIKPRR [F9E], with 4.43; and MYKLSSEQHHEAASKMESTIKPRR [F9H], with 4.32; and MYKLSSEQKHEAASKMESTIKPRR [F9K], with 4.58. Regarding MYKLSSEQDHEAASKMESTIKPRR [F9D], the protein stability index worked out at 4.82. Then MYKLSSEQTHEAASKMESTIKPRR [F9T], with 4.2; and MYKLSSEQIHEAASKMESTIKPRR [F9I], with 4.06. Then MYKLGSEQFHEAASKMESTIKPRR [S5G], with 4.68; and MYKLYSEQFHEAASKMESTIKPRR [S5Y], with 2.72; and MYKLFSEQFHEAASKMESTIKPRR [S5F], with 2.82. Then MYKLKSEQFHEAASKMESTIKPRR [S5K], with 3.56. For MYKLQSEQFHEAASKMESTIKPRR [S5Q], the protein stability index came out at 3.78.

For MYKLISEQFHEAASKMESTIKPRR [S5I], the protein stability index came out at 2.65. MYKLNSEQFHEAASKMESTIKPRR [S5N]: the protein stability index worked out at 4.06. Then MYKLRSEQFHEAASKMESTIKPRR [S5R], with 3.94; and MYKLMSEQFHEAASKMESTIKPRR [S5M], with 3.87; and MYKLWSEQFHEAASKMESTIKPRR [S5W], with 3.17. Then MYKLPSEQFHEAASKMESTIKPRR [S5P], with 3.17; and MYKLESEQFHEAASKMESTIKPRR [S5E], with 4.24. On to MYKLLSEQFHEAASKMESTIKPRR [S5L], for which the protein stability index is 3.02.

Consider MYKLVSEQFHEAASKMESTIKPRR [S5V], for which the protein stability index worked out at 3.43. Then MYKLHSEQFHEAASKMESTIKPRR [S5H], with 4.14.

As to MYKLTSEQFHEAASKMESTIKPRR [S5T], the protein stability index was found to be 3.64.

The values above are taken from the supplement of paper PMC10567573.
